Residue numbers refer to the chain shown, from its start. Names and notes keep the numbering of the source.
T1: EsCas13d, nuclease-dead (Eubacterium siraeum, UniProt B0MS50, R295A;H300A;R849A;H854A)
T1 sequence: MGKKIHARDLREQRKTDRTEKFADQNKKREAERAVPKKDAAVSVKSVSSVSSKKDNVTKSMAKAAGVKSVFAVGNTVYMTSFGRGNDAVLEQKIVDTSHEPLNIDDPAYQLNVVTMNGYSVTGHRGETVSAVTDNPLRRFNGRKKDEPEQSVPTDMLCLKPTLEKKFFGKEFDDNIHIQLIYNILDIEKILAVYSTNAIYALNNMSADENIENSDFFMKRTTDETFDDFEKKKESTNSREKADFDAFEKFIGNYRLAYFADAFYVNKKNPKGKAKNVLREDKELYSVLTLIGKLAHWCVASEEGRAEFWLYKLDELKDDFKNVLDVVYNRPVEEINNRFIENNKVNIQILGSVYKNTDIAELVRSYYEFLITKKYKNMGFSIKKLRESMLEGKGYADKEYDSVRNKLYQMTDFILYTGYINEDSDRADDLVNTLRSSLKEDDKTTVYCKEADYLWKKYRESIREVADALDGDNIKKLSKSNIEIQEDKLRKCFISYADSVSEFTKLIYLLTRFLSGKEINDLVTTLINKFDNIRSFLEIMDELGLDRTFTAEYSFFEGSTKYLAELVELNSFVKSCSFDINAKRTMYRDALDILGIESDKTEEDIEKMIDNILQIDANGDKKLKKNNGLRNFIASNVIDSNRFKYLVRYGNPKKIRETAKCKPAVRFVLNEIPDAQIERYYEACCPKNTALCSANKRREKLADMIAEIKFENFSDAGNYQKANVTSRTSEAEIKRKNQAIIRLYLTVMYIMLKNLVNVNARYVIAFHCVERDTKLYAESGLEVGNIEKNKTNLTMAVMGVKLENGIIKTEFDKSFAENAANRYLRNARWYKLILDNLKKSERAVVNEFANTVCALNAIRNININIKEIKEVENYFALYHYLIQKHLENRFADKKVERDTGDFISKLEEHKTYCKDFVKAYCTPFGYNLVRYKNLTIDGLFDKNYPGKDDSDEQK

B1: target 1 C2U,G15U (mixed)
RNA 1: CACCCGUGCAAAAAUGCAGGGGUCUAAAACUGAGCGGAUAACCUCUCUAUGG
RNA 2: GGGAAUGGAUCCACAUCUACGAAUUCGUACCAUAGAUAGGUUAUCCGCUUACCGAGAUCGGAAGAGCACACGU
B2: target 1 A9U,C22U (mixed)
RNA 1: B1 RNA 1
RNA 2: B1 RNA 2 with C30U, U37G, A43U, U50C
B3: target 1 insC 3' of 14,insU 3' of 14 (mixed)
RNA 1: B1 RNA 1
RNA 2: GGGAAUGGAUCCACAUCUACGAAUUCGUACCAUAGAGACUGGUUAUCCGCUCACCGAGAUCGGAAGAGCACACGU
B4: target 3 insU 3' of 6 (mixed)
RNA 1: CACCCGUGCAAAAUUGCAGGGGUCUAAAACGACCUGAAUAUUUCAGAUCAAA
RNA 2: GGGAAUGGAUCCACAUCUACGAAUUCGUUUUUGAUCUGAAAUAUUCUAGGUCUGCAGAUCGGAAGAGCACACGU
B5: target 3 C6G,U8A (mixed)
RNA 1: B4 RNA 1
RNA 2: GGGAAUGGAUCCACAUCUACGAAUUCGUUUUUGAUCUGAAAUAAUGAGGUCUGCAGAUCGGAAGAGCACACGU
B6: target 3 G4C,C6A (mixed)
RNA 1: B4 RNA 1
RNA 2: B5 RNA 2 with A44U, G46A, G48C
B7: target 3 insG 3' of 6,insU 3' of 5 (mixed)
RNA 1: B4 RNA 1
RNA 2: GGGAAUGGAUCCACAUCUACGAAUUCGUUUUUGAUCUGAAAUAUUCGAUGGUCUGCAGAUCGGAAGAGCACACGU
B8: target 3 insG 3' of 16,insU 3' of 1 (mixed)
RNA 1: B4 RNA 1
RNA 2: GGGAAUGGAUCCACAUCUACGAAUUCGUUUUUGAUCGUGAAAUAUUCAGGUCUUGCAGAUCGGAAGAGCACACGU
B9: target 3 insC 3' of 9,insA 3' of 3 (mixed)
RNA 1: B4 RNA 1
RNA 2: B7 RNA 2 with U44C, C46U, G47C, U49G, G51A
B10: target 3 insA 3' of 7,insA 3' of 4 (mixed)
RNA 1: B4 RNA 1
RNA 2: B7 RNA 2 with C46A, G47C, U49G, G50A
B11: target 3 insC 3' of 11,insA 3' of 10 (mixed)
RNA 1: B4 RNA 1
RNA 2: B7 RNA 2 with U42C, A43U, U44A, U45A, C46U, G47U, A48C, U49A
B12: target 3 G19U,U20A (mixed)
RNA 1: B4 RNA 1
RNA 2: B5 RNA 2 with U32A, G33U, A44U, G46C
B13: target 3 insU 3' of 6,insA 3' of 2 (mixed)
RNA 1: B4 RNA 1
RNA 2: B7 RNA 2 with G47U, U49G, G51U, U52A
B14: target 3 insU 3' of 5 (mixed)
RNA 1: B4 RNA 1
RNA 2: B4 RNA 2 with U47A, A48U
B15: target 3 insA 3' of 8,insC 3' of 5 (mixed)
RNA 1: B4 RNA 1
RNA 2: B7 RNA 2 with U45A, C46U, G47C, U49C
B16: target 3 insA 3' of 21,insA 3' of 4 (mixed)
RNA 1: B4 RNA 1
RNA 2: GGGAAUGGAUCCACAUCUACGAAUUCGUUUUAUGAUCUGAAAUAUUCAGAGUCUGCAGAUCGGAAGAGCACACGU
B17: target 3 insU 3' of 5,insU 3' of 4 (mixed)
RNA 1: B4 RNA 1
RNA 2: B7 RNA 2 with G47A, A48U, U49G, G50U
B18: target 3 C6A,U8G (mixed)
RNA 1: B4 RNA 1
RNA 2: B5 RNA 2 with A44G, G46A
B19: target 3 A11G,U22A (mixed)
RNA 1: B4 RNA 1
RNA 2: B5 RNA 2 with U30A, A41G, A44U, G46C
B20: target 3 A18G,U22G (mixed)
RNA 1: B4 RNA 1
RNA 2: B5 RNA 2 with U30G, A34G, A44U, G46C
B21: target 3 G4C,U22A (mixed)
RNA 1: B4 RNA 1
RNA 2: B5 RNA 2 with U30A, A44U, G46C, G48C
B22: target 3 insA 3' of 22,insU 3' of 3 (mixed)
RNA 1: B4 RNA 1
RNA 2: B16 RNA 2 with U31A, A32U, A50G, G51U
B23: target 3 insC 3' of 13,insU 3' of 5 (mixed)
RNA 1: B4 RNA 1
RNA 2: B7 RNA 2 with A40C, U42A, A43U, U44A, C46U, G47C
B24: target 3 U2C,A5C (mixed)
RNA 1: B4 RNA 1
RNA 2: B5 RNA 2 with A44U, G46C, A47C, U50C
B25: target 3 A5U,A18G (mixed)
RNA 1: B4 RNA 1
RNA 2: B5 RNA 2 with A34G, A44U, G46C, A47U
B26: target 3 insG 3' of 9,insG 3' of 6 (mixed)
RNA 1: B4 RNA 1
RNA 2: B7 RNA 2 with U44G, C46U, G47C, A48G, U49A
B27: target 3 insG 3' of 8,insA 3' of 2 (mixed)
RNA 1: B4 RNA 1
RNA 2: B7 RNA 2 with U45G, C46U, G47C, U49G, G51U, U52A
B28: target 3 G3U,A12G (mixed)
RNA 1: B4 RNA 1
RNA 2: B5 RNA 2 with A40G, A44U, G46C, G49U
B29: target 3 insA 3' of 6,insU 3' of 1 (mixed)
RNA 1: B4 RNA 1
RNA 2: B7 RNA 2 with G47A, U49G, G51U, U52C, C53U
B30: target 3 insA 3' of 8,insA 3' of 8 (mixed)
RNA 1: B4 RNA 1
RNA 2: B7 RNA 2 with U45A, C46A, G47U, A48C, U49A
B31: target 3 insA 3' of 14,insU 3' of 4 (mixed)
RNA 1: B4 RNA 1
RNA 2: B8 RNA 2 with G37U, U38G, G39A, G50U, U51G, C52U, U53C
B32: target 3 insC 3' of 7,insG 3' of 5 (mixed)
RNA 1: B4 RNA 1
RNA 2: B7 RNA 2 with G47C, U49G

Target: T1, EsCas13d, nuclease-dead
Assay: crRNA (strand 1, pre-loaded); Mg2+; 40 mM Tris-HCl pH 7.5, 150 mM NaCl, 6 mM MgCl2, 1 mM DTT, 0.1% Tween-20, 0.2 mg/ml BSA; 25 C; 10 min per concentration, then washed
Details: tags: His6-TwinStrep-SUMO cleaved; N-terminal SNAP kept (SNAP-Surface 488); label: 3' end held by stalled T7 RNA polymerase

| Binder | Kd |
| --- | --- |
| B1 | 29 ± 4 nM |
| B2 | 24 ± 4 nM |
| B3 | 50 ± 12 nM |
| B4 | 17.3 ± 1.35 nM |
| B5 | 81.5 ± 10 nM |
| B6 | 26.6 ± 1.85 nM |
| B7 | 7.59 ± 0.605 nM |
| B8 | 74 ± 24 nM |
| B9 | 83.5 ± 14 nM |
| B10 | 66 ± 12 nM |
| B11 | 46.5 ± 16.5 nM |
| B12 | 90 ± 27 nM |
| B13 | 47 ± 14 nM |
| B14 | 6.55 ± 0.65 nM |
| B15 | 51 ± 5 nM |
| B16 | ~81.5 nM |

| Binder | Kd |
| --- | --- |
| B17 | 2 ± 0.23 nM |
| B18 | 65 ± 7.5 nM |
| B19 | 67 ± 15 nM |
| B20 | 64 ± 10 nM |
| B21 | 10.7 ± 1 nM |
| B22 | 23.1 ± 3.65 nM |
| B23 | 100 ± 40 nM |
| B24 | 105 ± 18.5 nM |
| B25 | 117 ± 25 nM |
| B26 | 71 ± 10 nM |
| B27 | 67.5 ± 17 nM |
| B28 | 86 ± 15 nM |
| B29 | 31.9 ± 5.8 nM |
| B30 | 63 ± 8.5 nM |
| B31 | 43.5 ± 14.5 nM |
| B32 | 58.5 ± 9.5 nM |

Reference: paper PMC10786891, “Massively parallel profiling of RNA-targeting CRISPR-Cas13d”
